The target in experiment [1] is T1, H-2 K^d molecules purified by affinity chromatography (human, UniProt P61769 21-119; P01902 22-305).
T1 construct: MHC class I molecule, 1-10 nM in the assay, with added human beta-2 microglobulin; also called purified MHC molecules
Put plainly: radiolabeled peptide inhibition assay, purified H-2 K^d.
Excerpt: (§1) Binding assays. […] Under the conditions utilized, where [label]<[MHC] and IC₅₀≧[MHC], the measured IC50 values are reasonable approximations of the KD values.

The target in experiment [2] is T1, H-2 K^d molecules purified by affinity …. The description is as above. This is another data set of the same source.
Excerpt: as §1

This note sets out measurements from patent US20150252427A1 (UNIVERSITY OF CONNECTICUT, published 2015).

Where two headings read alike, the source gives them in different places.

The IC50 is the concentration needed to halve the response being measured.

B1: Alkbh6.1 Mut peptide (peptide)
peptide: DYVPMEQP
notes: Mut of D(y/D)VPMEQP; CMS5
B1 registered an IC50 in experiment [1] of 60900 nM.

B2: Pacs2 WT peptide (peptide)
peptide: HYLSAILRL
notes: WT of HYLS(s/A)ILRL
Molecule B2 gave an IC50 in experiment [2] of 1270 nM.

B3: Pacs2 Mut peptide (peptide)
peptide: HYLSSILRL
notes: Mut of HYLS(s/A)ILRL; Meth A
Take B3: the IC50 in experiment [2] was 41 nM.

B4: Tnpo3 Mut peptide (peptide)
peptide: SYMLQALCI
notes: Mut of (sy/LD)MLQALCI; Meth A; also called mutant Tnpo3 peptide; sy-MLQALCI
In experiment [1], B4 gave an IC50 of 82 nM.

B5: Mast2 WT peptide (peptide)
peptide: KLQRQYRSPRR
Consider B5, for which the IC50 in experiment [1] was 8510 nM.

B6: Mast2 Mut peptide (peptide)
peptide: KLQRQYRSPRL
notes: CMS5
As to B6, the IC50 in experiment [1] amounted to 10100 nM.

B7: Nfkb1 WT peptide (peptide)
peptide: GDSVLHLAI
notes: WT of G(y/D)SVLHLAI
B7 registered an IC50 in experiment [1] of 1620 nM.

B8: Nfkb1 Mut peptide (peptide)
peptide: GYSVLHLAI
notes: Mut of G(y/D)SVLHLAI; Meth A
B8: the IC50 in experiment [1] was determined as 0.26 nM.

B9: Dhx8.4 WT peptide (peptide)
peptide: PDLTQYAIIM
As for B9, half-maximal inhibition in experiment [1] (IC50) required 6260 nM.

B10: Dhx8.4 Mut peptide (peptide)
peptide: PYLTQYAIIM
notes: CMS5
As to B10, in experiment [1], the IC50 stood at 6570 nM.

B11: Ube4a.2 Mut peptide (peptide)
peptide: AYAKQFAA
notes: Mut of A(y/D)AKQFAA; Meth A
In experiment [1], B11 yielded an IC50 of 28600 nM.

B12: Ufsp2 WT peptide (peptide)
peptide: HYINMSLPI
notes: WT of HYINM(i/S)LPI
As for B12, the IC50 in experiment [2] was below 0.1 nM.

B13: Ufsp2 Mut peptide (peptide)
peptide: HYINMILPI
notes: Mut of HYINM(i/S)LPI; Meth A
Take B13: half-maximal inhibition in experiment [2] (IC50) was put at 0.23 nM.

B14: Atxn10.1 WT peptide (peptide)
peptide: QVFPGLMER
B14 yielded an IC50 in experiment [1] of 7050 nM.

B15: Trim26.1 WT peptide (peptide)
peptide: ADILAALTKL
B15 showed an IC50 in experiment [1] of 1.1 nM.

B16: Trim26.1 Mut peptide (peptide)
peptide: AYILAALTKL
notes: Meth A
As to B16, the IC50 in experiment [1] was found to be 622 nM.

B17: Gapdh Mut peptide (peptide)
peptide: VYLTCRLEKPA
notes: Meth A
In experiment [1], B17 displayed an IC50 of 1150 nM.

B18: Rangap1 WT peptide (peptide)
peptide: SEDKIKAIP
In the case of B18, inhibition in experiment [1] was half-maximal at 5110 nM (IC50).

B19: Prrc2a WT peptide (peptide)
peptide: PDKRLKAEPA
B19: the IC50 in experiment [1] came out at 261 nM.

B20: Prrc2a Mut peptide (peptide)
peptide: PYKRLKAEPA
notes: Meth A
In turn, B20 had an IC50 in experiment [1] of 1450 nM.

B21: Galnt1 Mut peptide (peptide)
peptide: LYVSKLNGP
notes: Mut of L(y/D)VSKLNGP; Meth A
For B21, 27100 nM corresponded to half-maximal inhibition in experiment [1] (IC50).

B22: Ckap5 Mut peptide (Table 5, 9-mer) (peptide)
peptide: KYMSMLEER
notes: Mut of K(y/D)MSMLEER; Meth A
The molecule B22 returned an IC50 in experiment [1] of 58 nM.

B23: Alms1.2 WT peptide (peptide)
peptide: YYVPLLKRVPS
For B23, in experiment [2], the IC50 was 1480 nM.

B24: Alms1.2 Mut peptide (peptide)
peptide: YYVPLLKRVPL
notes: Meth A
With B24, in experiment [2], the IC50 amounted to 421 nM.

B25: Tnpo3 WT peptide (peptide)
peptide: LDMLQALCI
notes: WT of (sy/LD)MLQALCI
In experiment [1], B25 yielded an IC50 of 146 nM.

B26: Stau1.3 Mut peptide (peptide)
peptide: PALKSEEKTL
notes: CMS5
As for B26, in experiment [1], the midpoint of inhibition, the IC50, lay at 69500 nM.

B27: Serinc1 WT peptide (peptide)
peptide: NYLLSLVAVVL
Molecule B27 came in with an IC50 in experiment [2] of 20900 nM.

B28: Serinc1 Mut peptide (peptide)
peptide: NYLLSLVAVML
notes: CMS5
With B28, in experiment [2], half-maximal inhibition (IC50) was put at 2680 nM.

B29: Dis312.1 Mut peptide (peptide)
peptide: IYGVVARNRAL
notes: Mut of I(y/D)GVVARNRAL; Meth A
In experiment [1], B29 gave an IC50 of 143 nM.

B30: Trim26.2 Mut peptide (peptide)
peptide: AYILAALTKLQ
notes: Meth A
Molecule B30 gave an IC50 in experiment [1] of 17600 nM.

B31: Ube4a.1 Mut peptide (peptide)
peptide: AYAKQFAAI
notes: Mut of A(y/D)AKQFAAI; Meth A
Take B31: the IC50 in experiment [1] was determined as 12 nM.

B32: Cpsf2 Mut peptide (peptide)
peptide: LYDVDAAF
notes: Mut of L(y/D)DVDAAF; Meth A
In experiment [1], B32 came in with an IC50 of 1410 nM.

B33: Ccdc85c Mut peptide (peptide)
peptide: TYIRPFETKV
notes: Mut of TYIRP(f/L)ETKV; Meth A
For the molecule B33, in experiment [2], inhibition was half-maximal at 6160 nM (IC50).

B34: Alkbh6.4 Mut peptide (peptide)
peptide: DYVPMEQPRPP
notes: CMS5
With B34, in experiment [1], the IC50 worked out at 47100 nM.

B35: Zfp236.1 Mut peptide (peptide)
peptide: EYLDLQTQ
notes: Mut of E(y/D)LDLQTQ; Meth A
Molecule B35 came in with an IC50 in experiment [1] of 1640 nM.

B36: M112 WT peptide (peptide)
peptide: SDRLPSSRKK
For the molecule B36, the IC50 in experiment [1] was 17 nM.

B37: Slit3 Mut peptide (peptide)
peptide: GFHGCIHEVL
notes: CMS5
B37 displayed an IC50 in experiment [1] of 51600 nM.

B38: Apc WT peptide (peptide)
peptide: AYCETCWEW
With B38, the IC50 in experiment [2] was found to be 60 nM.

B39: Apc Mut peptide (peptide)
peptide: AYCETCWEL
notes: Meth A
For B39, in experiment [2], the midpoint of inhibition, the IC50, lay at 23 nM.

B40: Kdm4b Mut peptide (peptide)
peptide: LYHTRPTAL
notes: Mut of L(y/D)HTRPTAL; Meth A
On to B40, for which the IC50 in experiment [1] turned out to be 264 nM.

B41: Dhx8.1 WT peptide (peptide)
peptide: PDLTQYAIIML
B41 showed an IC50 in experiment [1] of 1650 nM.

B42: Dhx8.1 Mut peptide (peptide)
peptide: PYLTQYAIIML
notes: CMS5
Turning to B42, in experiment [1], 2190 nM corresponded to half-maximal inhibition (IC50).

B43: Fiz1 Mut peptide (peptide)
peptide: HYLQGSNA
notes: Mut of H(y/D)LQGSNA; Meth A
Molecule B43 yielded an IC50 in experiment [1] of 2470 nM.

B44: Ccdc136 WT peptide (peptide)
peptide: ELQGLLEDER
B44 returned an IC50 in experiment [1] of 4540 nM.

B45: Ssx2ip WT peptide (peptide)
peptide: CYAKLKEQL
notes: WT of CYAK(v/L)KEQL
B45 yielded an IC50 in experiment [2] of 3.2 nM.

B46: Ssx2ip Mut peptide (peptide)
peptide: CYAKVKEQL
notes: Mut of CYAK(v/L)KEQL; CMS5
The molecule B46 had an IC50 in experiment [2] of 26 nM.

B47: Ugdh WT peptide (peptide)
peptide: LDYERIHKKML
Regarding B47, the IC50 in experiment [1] was found to be 12 nM.

B48: Ugdh Mut peptide (peptide)
peptide: LYYERIHKKML
notes: Meth A
Consider B48, for which, in experiment [1], half-maximal inhibition (IC50) was put at 600 nM.

B49: Dhx8.3 WT peptide (peptide)
peptide: PDLTQYAII
notes: WT of P(y/D)LTQYAII
On to B49, for which the IC50 in experiment [1] was found to be 1420 nM.

B50: Dhx8.3 Mut peptide (peptide)
peptide: PYLTQYAII
notes: Mut of P(y/D)LTQYAII; CMS5
Molecule B50 displayed an IC50 in experiment [1] of 244 nM.
